{"source": "patent US20260116958A1", "about": "(University of California, published 2026)", "binders": {"B1": {"name": "hu6G9 scFv (scFv)", "scFv": "QVQLVQSGAEVKKPGASVKMSCKASGYTFTSYWMHWVRQAPGQGLEWIGYINPSTGYTEYNQKFKDRATLTADKSTSTAYMELRSLRSDDTAVYYCARGGNYVDYWGQGTTLTVSSVDLKSGGSTSGSGKPGSGEGSSGSARDIQMTQSPSTLSASVGERVTITCRASQGISSWLAWYQQKPGKAPKRLIYAVSTLQTGVPSRFSGSGSGTDLTLTINSLQPEDFATYYCQHLNSYPLTFGGGTKVEIK"}, "B2": {"name": "hu6G6.1 scFv (scFv)", "scFv": "QVQLVQSGAEVKKPGASVKLSCKASGFNIKDTYMHWVRQAPGQGLEWIGRIDPENGNTKYDPKFQGRATITAYKSINTAYLELSRLRSDDTAVYYCASGPNYYGTTWFAYWGQGTTVTVSSVDLKSGGSTSGSGKPGSGEGSSGSAREIVLTQSPSTLSASVGDRVTITCRASHGISNYLAWYQQKPGRAPKLLIYKASTLHIGVPSRFSGSGSGTEFALTISSLQPDDFSTYYCQQYNSYLPHTFGQGTRLEIK"}, "B3": {"name": "Hu6G6.2 scFv (scFv)", "scFv": "B2 scFv with T78R"}, "B4": {"name": "6G9 scFv (scFv, V domains shown)", "VH": "EVQLQQSGDDLVKPGASVKMSCKASGYTFTSYWMHWVKQRPGQGLEWIGYINPSTGYTEYNQKFKDKATLTADKSSSTAYMQLSSLTSEDSAVYYCARGGNYVDYWGQGTTLTVSS", "VL": "EIVLTQSPAIMSASPGEKVTISCSASSSVSYMYWYQQKPGSSPKPWIYRTSNLASGVPARFSGSGSGTSYSLTISSMEAEDAATYYCQQWSSNPYTFGGGTKLEIKR"}, "B5": {"name": "6G10 scFv (scFv, V domains shown)", "VH": "EVQLQQSGPELVKPGASVKISCKASGYSFTGYFMHWVKQSHVKSLEWIGRINPYNGDIIYNQNFKDKASLTVDKSSSTAYMELHSLTSEDSAVYYCASLFGLYYFDYWGQGTTLTVSS", "VL": "EIVLTQSPAIMSASPGEKVTMTCSASSSVSYMHWYQQKSGTSPKRWIYDTSKLASGVPARFSGSGSGTSYSLTISSMEAEDAATYYCQQWSSNPLTFGAGTKLELKR"}, "B6": {"name": "6G7.1 scFv (scFv, V domains shown)", "VH": "DVQLQESGPELVKPGASVKVSCKASDYSFTDYNIYWVKQSHGKSLEWIGYIDPYNGGTSYNQKFKGKATLTVDKSSSTAFMYLNSLTSEDSAVYYCALYGYDPDYIDYWGQGTTLTVSS", "VL": "QIVLTQSPAIMSASPGEKVTITCSASSSVSYLHWFQQKPGTSPKLWIYSTSNLASGVPARFSGSGSGTSYSLTISRMEAEDAATYYCQQRSSYPYTFGGGTKLEIKA"}, "B7": {"name": "Hu6G7.2 scFv (scFv, V domains shown)", "VH": "QVQLVQSGAEVKKPGASVKVSCKASDYSFTDYNIYWVRQTPGQGLEWIGYIDPYNGGTSYNQKFKGRATLTVDKSISTAYMELSRLRSDDTAVYYCALYGYDPDYTEYWGQGTTLTVSS", "VL": "DIVLTQSPASMAVSPGQRVTITCSASSSVSYLHWFQQKPGQSPKLWIYSTSNLASGVPARFSGSGSGTDYTLTINPMEAEDTATYYCQQRSSYPYTFGQGTKLEIKR"}, "B8": {"name": "6G6 scFv (scFv, V domains shown)", "VH": "EVQLQQSGAELVKPGASVKLSCTASGFNIKDTYMHWVKQRPEQGLEWIGRIDPANGNTKYDPKFQGKATITADTSSNTAYLQLSSLTSEDTAVYYCASGPNYYGTTWFAYWGQGTTVTVSS", "VL": "QIVLTQSPAILSASPGEKVTMTCRASSSVSYMHWYQQKPGSSPRLWIYRTSNLASGVPARFSGSGSGTSYSLTISSMEAEDAATYYCQQYHSYPRTFGGGTKLEIKR"}, "B9": {"name": "hu6G11 scFv (scFv, V domains shown)", "VH": "QVQLVQSGAEVAKPGASVKMSCKASGYTFTSYWMHWVRQAPGQGLEWIGYINPSTGYTEYNQKFKDRATLTADKSTSTAYMELSSLRSEDTAVYYCARGYFSFAYWGQGTLVTVSS", "VL": "DIVMTQSPSSLSASVRDRVTITCQASHDIKNFLNWFQQKPGKAPKLLVYDASNLQVGVPSRFSASGYGTEFTLTISSLQPEDFATYYCQQANSFPRTFGQGTKVEIKR"}}, "key": {"[1]": {"target": "inactive BoNT/G (BoNT/Gi) (Clostridium botulinum) (UniProt Q60393)", "assay": "flow cytometry, scFv on yeast"}, "[2]": {"target": "inactive BoNT/G (BoNT/Gi) (Clostridium botulinum) (UniProt Q60393)", "assay": "flow cytometry, scFv on yeast surface"}, "[3]": {"target": "inactive BoNT/G (BoNT/Gi) (Clostridium botulinum) (UniProt Q60393)", "assay": "flow cytometry, scFv on yeast", "remark": "listed apart in the source"}, "[4]": {"target": "inactive BoNT/G (BoNT/Gi) (Clostridium botulinum) (UniProt Q60393)", "assay": "scFv on yeast surface"}, "[5]": {"target": "inactive BoNT/G (BoNT/Gi) (Clostridium botulinum) (UniProt Q60393)", "assay": "flow cytometry, scFv on yeast; against hu6G6 Wt"}, "[6]": {"target": "inactive BoNT/G (BoNT/Gi) (Clostridium botulinum) (UniProt Q60393)", "assay": "FACS, scFv on yeast"}, "[7]": {"target": "inactive BoNT/G (BoNT/Gi) (Clostridium botulinum) (UniProt Q60393)", "assay": "scFv on yeast"}, "[8]": {"target": "T1, inactive BoNT/G (BoNT/Gi) (Clostridium botulinum, UniProt Q60393 1-1297)", "T1 sequence": "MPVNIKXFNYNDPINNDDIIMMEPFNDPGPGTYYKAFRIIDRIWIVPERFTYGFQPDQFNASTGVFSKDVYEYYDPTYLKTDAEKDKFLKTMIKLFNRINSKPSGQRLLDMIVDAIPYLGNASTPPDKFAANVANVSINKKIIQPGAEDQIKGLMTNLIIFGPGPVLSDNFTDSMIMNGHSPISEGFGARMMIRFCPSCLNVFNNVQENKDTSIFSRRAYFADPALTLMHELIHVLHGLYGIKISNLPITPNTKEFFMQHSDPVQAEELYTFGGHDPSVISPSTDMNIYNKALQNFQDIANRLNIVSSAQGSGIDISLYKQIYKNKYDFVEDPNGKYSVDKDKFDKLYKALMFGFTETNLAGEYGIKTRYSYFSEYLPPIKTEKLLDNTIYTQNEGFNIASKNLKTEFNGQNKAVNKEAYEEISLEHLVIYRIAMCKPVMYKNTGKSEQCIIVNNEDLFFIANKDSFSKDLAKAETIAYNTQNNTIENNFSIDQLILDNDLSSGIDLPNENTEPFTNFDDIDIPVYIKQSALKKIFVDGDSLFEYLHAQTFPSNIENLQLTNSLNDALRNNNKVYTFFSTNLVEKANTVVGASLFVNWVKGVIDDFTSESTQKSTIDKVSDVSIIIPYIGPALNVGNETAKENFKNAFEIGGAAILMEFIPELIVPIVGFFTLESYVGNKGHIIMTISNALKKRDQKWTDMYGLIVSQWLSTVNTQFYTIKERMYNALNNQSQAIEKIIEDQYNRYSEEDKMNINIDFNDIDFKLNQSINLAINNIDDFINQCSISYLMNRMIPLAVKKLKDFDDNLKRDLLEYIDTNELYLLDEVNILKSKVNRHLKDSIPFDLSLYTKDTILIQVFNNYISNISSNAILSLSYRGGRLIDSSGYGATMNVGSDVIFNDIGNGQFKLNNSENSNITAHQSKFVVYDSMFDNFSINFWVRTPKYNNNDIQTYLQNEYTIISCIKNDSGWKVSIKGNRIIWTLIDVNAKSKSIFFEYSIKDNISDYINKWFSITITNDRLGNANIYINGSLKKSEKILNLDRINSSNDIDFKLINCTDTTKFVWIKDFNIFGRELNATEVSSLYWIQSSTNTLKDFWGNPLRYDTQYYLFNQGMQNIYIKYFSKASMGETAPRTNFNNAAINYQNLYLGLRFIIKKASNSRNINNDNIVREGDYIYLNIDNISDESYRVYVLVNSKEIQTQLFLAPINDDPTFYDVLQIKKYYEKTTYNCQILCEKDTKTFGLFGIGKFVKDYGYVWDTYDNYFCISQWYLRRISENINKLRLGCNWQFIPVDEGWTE", "assay": "FACS, scFv on yeast"}, "[9]": {"target": "T1, inactive BoNT/G (BoNT/Gi)", "assay": "titration on yeast-displayed scFv, flow cytometry, fit y = m1 + m2*M0/(m0+m3)"}, "[10]": {"target": "T1, inactive BoNT/G (BoNT/Gi)", "assay": "titration on yeast-displayed scFv, flow cytometry, fit y = m1 + m2*M0/(m0+m3)", "remark": "listed apart in the source"}, "[11]": {"target": "T1, inactive BoNT/G (BoNT/Gi)", "assay": "scFv on yeast surface"}, "[12]": {"target": "T1, inactive BoNT/G (BoNT/Gi)", "assay": "titration on yeast-displayed scFv, flow cytometry, fit y = m1 + m2*M0/(m0+m3)", "remark": "listed apart in the source"}, "[13]": {"target": "T1, inactive BoNT/G (BoNT/Gi)", "assay": "titration on yeast-displayed scFv, flow cytometry, fit y = m1 + m2*M0/(m0+m3)", "remark": "listed apart in the source"}, "[14]": {"target": "T1, inactive BoNT/G (BoNT/Gi)", "assay": "flow cytometry, scFv on yeast"}, "[15]": {"target": "T1, inactive BoNT/G (BoNT/Gi)", "assay": "scFv on yeast"}}, "note": "Changes are numbered by the printed parent chain.", "data": [{"binder": "B1", "values": [{"measurement": "Kd", "setting": "[1]", "value": 3.78, "unit": "nM"}, {"measurement": "Kd", "setting": "[2]", "value": 18.8, "unit": "nM"}, {"measurement": "Kd", "setting": "[3]", "value": 18.8, "unit": "nM"}]}, {"binder": "B2", "values": [{"measurement": "Kd", "setting": "[4]", "value": 1.15, "unit": "nM"}, {"measurement": "Improvement over WT", "setting": "[5]", "value": 5.5, "unit": "fold"}, {"measurement": "Kd", "setting": "[6]", "value": 3.4, "unit": "nM"}, {"measurement": "Kd", "setting": "[3]", "value": 4.27, "unit": "nM"}]}, {"binder": "B3", "values": [{"measurement": "Kd", "setting": "[7]", "value": 0.22, "unit": "nM"}, {"measurement": "Kd", "setting": "[6]", "value": 0.22, "unit": "nM"}]}, {"binder": "B4", "values": [{"measurement": "Kd", "setting": "[8]", "value": 18.8, "unit": "nM"}, {"measurement": "Kd", "setting": "[9]", "value": 5.6, "unit": "nM"}]}, {"binder": "B5", "values": [{"measurement": "Kd", "setting": "[10]", "value": 2.48, "unit": "nM"}, {"measurement": "Kd", "setting": "[8]", "value": 2.48, "unit": "nM"}]}, {"binder": "B6", "values": [{"measurement": "Kd", "setting": "[11]", "value": 0.69, "unit": "nM"}, {"measurement": "Kd", "setting": "[8]", "value": 0.27, "unit": "nM"}, {"measurement": "Kd", "setting": "[12]", "value": 1.29, "unit": "nM"}, {"measurement": "Kd", "setting": "[13]", "value": 0.27, "unit": "nM"}, {"measurement": "Kd", "setting": "[14]", "value": 2.1, "unit": "nM"}]}, {"binder": "B7", "values": [{"measurement": "Kd", "setting": "[8]", "value": 1.42, "unit": "nM"}, {"measurement": "Kd", "setting": "[12]", "value": 3.93, "unit": "nM"}, {"measurement": "Kd", "setting": "[13]", "value": 1.42, "unit": "nM"}]}, {"binder": "B8", "values": [{"measurement": "Kd", "setting": "[11]", "value": 17.7, "unit": "nM"}]}, {"binder": "B9", "values": [{"measurement": "Kd", "setting": "[15]", "value": 4.57, "unit": "nM"}, {"measurement": "fold improvement in BoNT/Gi binding", "setting": "[15]", "value": 25, "unit": "fold"}, {"measurement": "Kd", "setting": "[8]", "value": 4.5, "unit": "nM"}]}]}
